This assay deals with BD-GmSPX8 (soybean (Glycine max)).

In turn, AD-GmPTF1 (natural protein) yielded a luciferase (LUC) signal of E-box-LUC in N. benthamiana leaves with PSK-GmPTF1 and PSK-GmSPX8 against PSK-GmPTF1 alone of 50%; a β-galactosidase activity of yeast cells AH109 with pGBKT7-BD-GmPTF1 and pGADT7-AD-GmSPX8 against pGBKT7-BD-GmPTF1 alone of 2 times.

The values above are taken from paper PMC8973899.
